Source: the supplement of paper PMC10065799, “High-throughput profiling of sequence recognition by tyrosine kinases and SH2 domains using bacterial peptide display” (eLife, 2023)

Columns and labels:
FGFR1 = FGFR1 (UniProt P11362); assay: phosphorylation enrichment, bacterial display (enrichment ratio); higher = better substrate or ligand; peptides without Tyr show the background
Jak2 = Jak2 (UniProt O60674); assay: as above
c-Abl (mouse) = assay: as above
Fer (mouse) = assay: as above
FGFR3 = FGFR3 (UniProt P22607); assay: as above
Sequence of FGFR3 (P22607 whole entry, looked up): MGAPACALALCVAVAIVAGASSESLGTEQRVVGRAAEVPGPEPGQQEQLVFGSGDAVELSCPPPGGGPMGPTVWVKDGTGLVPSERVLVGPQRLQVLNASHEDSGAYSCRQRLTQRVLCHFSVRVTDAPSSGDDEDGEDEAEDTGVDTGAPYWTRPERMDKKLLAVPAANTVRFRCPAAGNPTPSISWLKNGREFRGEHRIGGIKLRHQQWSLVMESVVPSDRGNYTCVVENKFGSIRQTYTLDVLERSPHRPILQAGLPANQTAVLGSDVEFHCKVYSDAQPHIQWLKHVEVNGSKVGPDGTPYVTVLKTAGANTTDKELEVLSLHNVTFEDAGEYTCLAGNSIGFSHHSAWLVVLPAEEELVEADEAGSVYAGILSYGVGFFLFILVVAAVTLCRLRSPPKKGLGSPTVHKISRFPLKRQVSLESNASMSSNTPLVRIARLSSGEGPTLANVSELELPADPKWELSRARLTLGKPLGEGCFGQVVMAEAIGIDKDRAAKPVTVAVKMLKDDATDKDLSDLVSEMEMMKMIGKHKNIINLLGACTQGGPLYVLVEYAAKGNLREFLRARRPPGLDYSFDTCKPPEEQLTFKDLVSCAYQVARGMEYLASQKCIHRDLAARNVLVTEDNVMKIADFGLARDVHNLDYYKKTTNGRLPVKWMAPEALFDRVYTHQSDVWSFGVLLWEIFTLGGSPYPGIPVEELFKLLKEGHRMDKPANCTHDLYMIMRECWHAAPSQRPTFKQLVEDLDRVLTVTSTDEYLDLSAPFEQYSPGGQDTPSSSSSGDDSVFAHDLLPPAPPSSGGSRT

EPHB1 = EPHB1 (UniProt P54762); assay: as above
Sequence of EPHB1 (P54762 whole entry, looked up): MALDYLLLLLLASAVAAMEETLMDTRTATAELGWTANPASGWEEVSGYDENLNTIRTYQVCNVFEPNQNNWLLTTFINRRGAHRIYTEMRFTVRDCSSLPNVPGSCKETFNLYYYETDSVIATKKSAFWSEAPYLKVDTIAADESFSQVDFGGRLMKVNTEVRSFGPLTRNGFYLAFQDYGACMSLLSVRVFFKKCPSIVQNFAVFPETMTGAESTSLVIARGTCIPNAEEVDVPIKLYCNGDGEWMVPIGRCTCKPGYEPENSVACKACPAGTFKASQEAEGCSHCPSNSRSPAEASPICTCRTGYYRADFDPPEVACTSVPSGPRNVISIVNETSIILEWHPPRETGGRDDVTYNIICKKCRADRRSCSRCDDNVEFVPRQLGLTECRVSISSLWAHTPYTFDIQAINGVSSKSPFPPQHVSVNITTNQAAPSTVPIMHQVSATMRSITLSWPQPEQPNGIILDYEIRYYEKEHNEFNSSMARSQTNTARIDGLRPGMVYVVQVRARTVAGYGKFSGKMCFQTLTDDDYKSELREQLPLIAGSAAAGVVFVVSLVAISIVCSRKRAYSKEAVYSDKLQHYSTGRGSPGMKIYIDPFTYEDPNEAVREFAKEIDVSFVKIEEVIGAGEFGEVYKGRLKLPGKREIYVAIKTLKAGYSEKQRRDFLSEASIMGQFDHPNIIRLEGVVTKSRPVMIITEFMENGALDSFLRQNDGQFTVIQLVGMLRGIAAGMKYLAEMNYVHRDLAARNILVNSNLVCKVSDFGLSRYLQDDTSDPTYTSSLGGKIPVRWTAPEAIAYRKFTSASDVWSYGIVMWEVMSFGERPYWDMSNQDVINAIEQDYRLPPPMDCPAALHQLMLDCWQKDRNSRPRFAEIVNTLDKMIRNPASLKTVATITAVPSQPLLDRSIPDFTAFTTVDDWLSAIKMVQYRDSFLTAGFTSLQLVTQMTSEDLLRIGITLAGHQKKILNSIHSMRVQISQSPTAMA

Hck = Hck (UniProt P08631); assay: as above
Sequence of Hck (P08631 whole entry, looked up): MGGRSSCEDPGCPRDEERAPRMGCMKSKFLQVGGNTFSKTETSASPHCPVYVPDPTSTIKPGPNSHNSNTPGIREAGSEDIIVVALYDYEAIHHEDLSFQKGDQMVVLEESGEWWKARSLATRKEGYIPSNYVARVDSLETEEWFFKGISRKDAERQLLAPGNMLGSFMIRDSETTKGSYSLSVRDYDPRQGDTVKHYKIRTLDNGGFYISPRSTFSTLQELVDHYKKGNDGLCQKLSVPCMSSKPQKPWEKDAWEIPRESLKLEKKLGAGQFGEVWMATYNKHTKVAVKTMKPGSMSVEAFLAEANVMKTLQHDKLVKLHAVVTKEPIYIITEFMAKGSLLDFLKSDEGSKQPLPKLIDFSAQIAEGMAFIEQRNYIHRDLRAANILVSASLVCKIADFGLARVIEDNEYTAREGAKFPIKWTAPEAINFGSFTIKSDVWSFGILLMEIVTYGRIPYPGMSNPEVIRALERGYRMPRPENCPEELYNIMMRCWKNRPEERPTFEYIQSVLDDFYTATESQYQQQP

AncSZ = assay: as above
Fes = Fes (UniProt P07332); assay: as above
Sequence of Fes (P07332 whole entry, looked up): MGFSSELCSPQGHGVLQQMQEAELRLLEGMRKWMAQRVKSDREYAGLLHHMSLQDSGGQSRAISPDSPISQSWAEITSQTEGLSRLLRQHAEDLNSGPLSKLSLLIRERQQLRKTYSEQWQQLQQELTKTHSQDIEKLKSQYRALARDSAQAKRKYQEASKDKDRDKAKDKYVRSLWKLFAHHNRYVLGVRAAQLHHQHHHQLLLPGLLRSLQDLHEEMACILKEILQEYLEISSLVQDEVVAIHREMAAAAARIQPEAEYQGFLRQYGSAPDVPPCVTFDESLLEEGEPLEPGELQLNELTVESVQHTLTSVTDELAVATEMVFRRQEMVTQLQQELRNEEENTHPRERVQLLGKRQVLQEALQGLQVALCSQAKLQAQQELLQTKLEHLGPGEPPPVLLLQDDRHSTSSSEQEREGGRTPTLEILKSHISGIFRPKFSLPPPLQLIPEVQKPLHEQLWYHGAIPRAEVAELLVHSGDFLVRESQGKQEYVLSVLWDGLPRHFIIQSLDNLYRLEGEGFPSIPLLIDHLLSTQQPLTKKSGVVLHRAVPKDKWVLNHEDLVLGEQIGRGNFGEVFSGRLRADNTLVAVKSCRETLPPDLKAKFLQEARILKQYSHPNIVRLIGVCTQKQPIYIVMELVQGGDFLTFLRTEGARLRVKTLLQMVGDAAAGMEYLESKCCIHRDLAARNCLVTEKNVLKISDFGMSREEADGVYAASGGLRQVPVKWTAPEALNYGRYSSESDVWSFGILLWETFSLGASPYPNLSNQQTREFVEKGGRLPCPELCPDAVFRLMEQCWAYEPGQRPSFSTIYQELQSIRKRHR

Fyn = Fyn (UniProt P06241); assay: as above
EPHB2 = EPHB2 (UniProt P29323); assay: as above
c-Src = assay: as above
MERTK = MERTK (UniProt Q12866); assay: as above
Grb2 SH2 = Grb2 SH2 (UniProt P62993); assay: SH2 binding enrichment of the phosphorylated peptide, bacterial display (enrichment ratio); higher = better substrate or ligand; peptides without Tyr show the background
SHP2-C SH2 = assay: as above
c-Src SH2 = assay: as above
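For SH2 binding enrichment of the phosphorylated peptide, bacterial display in this document: peptide library displayed on the E. coli surface as eCPX fusions, selected cells deep-sequenced, score is each peptide's frequency after selection divided by its frequency in the input.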
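For phosphorylation enrichment, bacterial display in this document: 11-residue human phosphosite peptides and single-mutation variants displayed on the E. coli surface, counted by deep sequencing, each peptide's frequency after selection divided by its frequency in the unselected input library; frequency after pTyr selection over input frequency; kinase dosed for 20-30% of maximal phosphorylation in three min.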

Sequence of Jak2 (O60674 whole entry, looked up): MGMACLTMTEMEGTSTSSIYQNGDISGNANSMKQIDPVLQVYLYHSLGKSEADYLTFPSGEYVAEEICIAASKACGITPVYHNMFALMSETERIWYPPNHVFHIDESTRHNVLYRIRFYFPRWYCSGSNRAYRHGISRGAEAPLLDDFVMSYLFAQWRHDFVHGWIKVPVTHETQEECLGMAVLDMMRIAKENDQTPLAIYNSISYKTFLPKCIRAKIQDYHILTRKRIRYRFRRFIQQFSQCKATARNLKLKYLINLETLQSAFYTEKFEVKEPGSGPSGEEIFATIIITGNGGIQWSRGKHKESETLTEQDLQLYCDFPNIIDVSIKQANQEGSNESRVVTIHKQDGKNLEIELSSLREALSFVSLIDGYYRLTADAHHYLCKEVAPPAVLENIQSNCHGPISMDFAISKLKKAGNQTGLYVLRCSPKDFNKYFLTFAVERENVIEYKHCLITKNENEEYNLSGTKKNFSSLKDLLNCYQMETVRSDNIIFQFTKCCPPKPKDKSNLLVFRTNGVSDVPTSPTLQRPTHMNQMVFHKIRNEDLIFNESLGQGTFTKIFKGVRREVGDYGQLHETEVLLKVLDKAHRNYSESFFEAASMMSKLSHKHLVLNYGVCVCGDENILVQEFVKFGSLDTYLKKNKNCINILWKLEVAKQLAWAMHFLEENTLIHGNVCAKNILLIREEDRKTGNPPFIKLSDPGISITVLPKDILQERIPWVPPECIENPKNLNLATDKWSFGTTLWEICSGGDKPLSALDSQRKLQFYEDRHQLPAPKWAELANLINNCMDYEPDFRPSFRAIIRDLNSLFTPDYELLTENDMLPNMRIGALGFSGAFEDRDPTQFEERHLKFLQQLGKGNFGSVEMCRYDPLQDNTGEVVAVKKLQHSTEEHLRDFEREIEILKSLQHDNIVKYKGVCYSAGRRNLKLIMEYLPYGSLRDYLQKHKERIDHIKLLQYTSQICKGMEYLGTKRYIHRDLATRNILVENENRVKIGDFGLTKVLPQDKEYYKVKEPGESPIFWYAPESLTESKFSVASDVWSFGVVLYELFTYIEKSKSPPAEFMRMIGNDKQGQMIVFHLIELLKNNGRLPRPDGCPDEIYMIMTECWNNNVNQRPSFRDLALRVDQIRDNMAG
Sequence of FGFR1 (P11362 whole entry, looked up): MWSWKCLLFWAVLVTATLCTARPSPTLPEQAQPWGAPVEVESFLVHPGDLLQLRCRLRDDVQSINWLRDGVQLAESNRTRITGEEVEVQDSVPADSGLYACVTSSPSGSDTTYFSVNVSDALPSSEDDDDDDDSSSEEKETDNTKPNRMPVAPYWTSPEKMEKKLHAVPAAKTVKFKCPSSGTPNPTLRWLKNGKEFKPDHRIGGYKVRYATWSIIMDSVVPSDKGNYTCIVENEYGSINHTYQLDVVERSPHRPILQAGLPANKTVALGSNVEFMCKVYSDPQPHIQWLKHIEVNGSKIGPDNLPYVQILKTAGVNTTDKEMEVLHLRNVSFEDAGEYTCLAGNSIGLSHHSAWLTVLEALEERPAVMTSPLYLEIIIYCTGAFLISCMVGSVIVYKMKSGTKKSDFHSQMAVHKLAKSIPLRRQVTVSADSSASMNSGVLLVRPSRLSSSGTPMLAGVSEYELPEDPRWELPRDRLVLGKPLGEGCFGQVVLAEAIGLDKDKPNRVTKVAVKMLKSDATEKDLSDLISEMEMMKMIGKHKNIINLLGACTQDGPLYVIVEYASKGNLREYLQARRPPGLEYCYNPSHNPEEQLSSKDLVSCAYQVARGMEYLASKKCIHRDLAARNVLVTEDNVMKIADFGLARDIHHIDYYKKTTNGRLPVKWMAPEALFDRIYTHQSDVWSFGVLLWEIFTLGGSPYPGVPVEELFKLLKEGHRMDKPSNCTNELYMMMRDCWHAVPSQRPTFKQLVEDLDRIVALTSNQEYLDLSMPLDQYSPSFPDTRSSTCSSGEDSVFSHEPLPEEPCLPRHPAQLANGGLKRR

SH2 binding enrichment (Grb2 SH2) | SH2 binding enrichment (SHP2-C SH2) | SH2 binding enrichment (c-Src SH2) | Sequence | phosphorylation enrichment (FGFR1) | phosphorylation enrichment (Jak2) | phosphorylation enrichment (c-Abl (mouse)) | phosphorylation enrichment (Fer (mouse)) | phosphorylation enrichment (FGFR3) | phosphorylation enrichment (EPHB1) | phosphorylation enrichment (Hck) | phosphorylation enrichment (AncSZ) | phosphorylation enrichment (Fes) | phosphorylation enrichment (Fyn) | phosphorylation enrichment (EPHB2) | phosphorylation enrichment (c-Src) | phosphorylation enrichment (MERTK)
0.808 | 0.766 | 0.586 | SGPRCYTIAAL [TTR_Y125_R124C] | 0.392 | 0.535 | 0.46 | 0.554 | 0.462 | 0.41 | 0.354 | 0.617 | 0.669 | 0.405 | 0.403 | 0.399 | 0.344
1.53 | 0.784 | 0.548 | LPEENYQVLRF [ARHGAP1_Y365] | 2.81 | 1.44 | 1.18 | 2.13 | 2.17 | 4.13 | 2.82 | 1.43 | 1.39 | 0.768 | 1.41 | 1.32 | 0.802
0.694 | 0.608 | 0.36 | GGSDCYGSLRP [MYLK_Y846_R845C] | 0.351 | 0.792 | 0.746 | 0.558 | 0.566 | 0.466 | 3.08 | 0.703 | 0.887 | 2.79 | 0.508 | 2.75 | 0.429
0.824 | 0.722 | 1.47 | DLAGRYYALKS [CKB_Y173] | 1.04 | 1.58 | 0.577 | 0.597 | 0.85 | 0.406 | 0.726 | 0.572 | 0.878 | 0.538 | 0.419 | 0.571 | 1.65
0.663 | 0.543 | 0.471 | SFSGEYGGGGG [ZG16_Y30_YF] | 0.496 | 0.47 | 0.505 | 0.413 | 0.35 | 0.392 | 0.397 | 0.62 | 0.571 | 0.348 | 0.467 | 0.423 | 0.306
0.67 | 0.783 | 0.564 | VTRDEYPSNPM [CEMIP2_Y1015_I1010V] | 0.323 | 0.696 | 0.523 | 0.339 | 0.491 | 0.411 | 0.397 | 0.6 | 0.751 | 0.356 | 0.417 | 0.394 | 0.487
0.895 | 0.667 | 0.518 | FLNSIYKCRDE [ROS1_Y2227_S2229C] | 0.579 | 1.24 | 0.78 | 0.477 | 0.662 | 0.463 | 0.572 | 0.953 | 0.909 | 0.488 | 0.514 | 0.774 | 0.311
0.981 | 1.05 | 1.01 | YCIDHYLGKEM [G6PD_Y202_R198C] | 0.567 | 0.75 | 0.611 | 0.952 | 0.558 | 0.499 | 0.694 | 0.892 | 0.827 | 0.503 | 0.567 | 0.606 | 0.64
1.2 | 3.14 | 2.03 | PSQRHYVYYYS [PTEN_Y174_R173H] | 9.38 | 4.48 | 1.28 | 1.65 | 6.63 | 1.72 | 2.13 | 1.71 | 1.63 | 2.84 | 0.953 | 4.77 | 12.6
0.763 | 0.681 | 0.464 | GRPLSYWLTGC [LYZL6_Y140_F139S] | 0.535 | 1.24 | 0.846 | 0.556 | 0.793 | 0.686 | 0.503 | 1.12 | 1.33 | 0.527 | 0.664 | 0.397 | 0.411
0.925 | 1.05 | 0.504 | SNKLTYGTMVF [ACOX1_Y275] | 0.459 | 0.863 | 0.836 | 0.631 | 0.573 | 0.505 | 2.9 | 0.773 | 1.02 | 5.28 | 0.604 | 4.65 | 0.495
0.921 | 0.657 | 0.444 | SKNYTYIWWLN [PSG4_Y271] | 0.589 | 1.09 | 0.676 | 0.638 | 0.77 | 0.582 | 0.4 | 1.09 | 1.14 | 0.343 | 0.58 | 0.273 | 0.332
0.73 | 0.584 | 0.398 | PVGVLYKVKVY [PTS_Y128] | 0.337 | 1.52 | 0.914 | 0.699 | 1.27 | 1.06 | 0.687 | 1.28 | 1.79 | 0.652 | 0.877 | 0.451 | 0.669
0.976 | 0.875 | 1.01 | SGIYQYNIAKF [FOXL2_Y83_I84N] | 0.659 | 0.593 | 4.58 | 14.7 | 0.605 | 2.14 | 4.76 | 0.898 | 0.732 | 3.42 | 1.56 | 3.79 | 9.83
0.903 | 0.538 | 0.601 | VYSTDCYRVGG [NTRK2_Y706_Y706C] | 0.787 | 0.972 | 0.808 | 0.824 | 0.769 | 2.13 | 1.38 | 1.07 | 1.16 | 2.56 | 1.01 | 2.23 | 7.43
0.633 | 0.303 | 0.352 | RLSELYLRRNP [CFAP410_Y68_R73P] | 0.381 | 0.659 | 0.555 | 0.249 | 0.533 | 0.372 | 0.631 | 0.813 | 0.83 | 0.407 | 0.477 | 0.317 | 0.377
0.666 | 0.697 | 0.399 | DKTGEYPVPLI [ACADM_Y73] | 0.468 | 0.856 | 0.55 | 0.442 | 0.687 | 0.528 | 0.49 | 0.809 | 0.957 | 0.407 | 0.575 | 0.436 | 0.392

SH2 binding enrichment (Grb2 SH2) | SH2 binding enrichment (SHP2-C SH2) | SH2 binding enrichment (c-Src SH2) | Sequence | phosphorylation enrichment (FGFR1) | phosphorylation enrichment (Jak2) | phosphorylation enrichment (c-Abl (mouse)) | phosphorylation enrichment (Fer (mouse)) | phosphorylation enrichment (FGFR3) | phosphorylation enrichment (EPHB1) | phosphorylation enrichment (Hck) | phosphorylation enrichment (AncSZ) | phosphorylation enrichment (Fes) | phosphorylation enrichment (Fyn) | phosphorylation enrichment (EPHB2) | phosphorylation enrichment (c-Src) | phosphorylation enrichment (MERTK)
0.786 | 0.467 | 0.499 | GDPTEYFITAI [IGSF22_Y501_S503I_YF] | 1.07 | 1.31 | 0.911 | 0.404 | 1.11 | 0.584 | 0.461 | 1.55 | 1.08 | 0.445 | 0.644 | 0.555 | 0.482
0.802 | 2.42 | 11 | CTTNHYNYMCN [TP53_Y234_I232N] | 0.479 | 0.593 | 0.495 | 0.489 | 0.526 | 0.682 | 0.415 | 0.725 | 0.712 | 0.382 | 0.483 | 0.373 | 0.398
1.15 | 0.598 | 0.506 | TRHDEYLEVTK [MAP1A_Y2217] | 0.589 | 0.726 | 0.612 | 0.421 | 1.11 | 0.464 | 0.399 | 0.882 | 1.03 | 0.565 | 0.547 | 0.401 | 0.343
0.996 | 0.633 | 0.817 | IGRHAYGDQFR [IDH1_Y135_YF] | 0.331 | 0.487 | 0.516 | 0.339 | 0.383 | 0.367 | 0.341 | 0.449 | 0.507 | 0.381 | 0.391 | 0.407 | 0.296
0.844 | 0.716 | 0.517 | DQGEQYKKELE [LMNA_Y259_V256G] | 0.464 | 1.31 | 1.15 | 0.642 | 0.682 | 0.801 | 0.535 | 1.39 | 1.39 | 0.488 | 0.676 | 0.522 | 0.467
0.643 | 0.39 | 0.364 | QTEAEYRFIFM [PTPN11_Y511_Q510E_YF] | 1.46 | 1.24 | 0.912 | 0.847 | 1.42 | 0.59 | 0.626 | 1.29 | 1.32 | 0.511 | 0.762 | 0.525 | 0.618
1.24 | 1.22 | 1.02 | VLALWYYYLTN [ZDHHC23_Y127_H132N] | 8.15 | 3.09 | 1.05 | 0.766 | 6.91 | 1.1 | 0.738 | 1.29 | 1.81 | 0.611 | 0.851 | 1.35 | 3.86
0.867 | 0.544 | 1.7 | KFMVGYEMLAK [GALT_Y339_Q344K] | 0.776 | 0.698 | 0.51 | 0.349 | 0.631 | 0.477 | 0.586 | 0.914 | 1.03 | 0.507 | 0.604 | 0.406 | 0.407
0.949 | 0.618 | 0.644 | NHFKRYNLCAE [PTEN_Y68_I67R_YF] | 0.456 | 0.59 | 0.678 | 0.419 | 0.471 | 0.384 | 0.449 | 0.638 | 0.668 | 0.459 | 0.565 | 0.538 | 0.485
0.985 | 0.648 | 0.542 | LSVEIYDRREF [ITGB7_Y753_YF] | 0.498 | 0.958 | 0.569 | 0.595 | 0.824 | 0.428 | 2.83 | 1.26 | 1.25 | 0.946 | 0.483 | 1.01 | 0.522
0.705 | 0.533 | 0.276 | ETGNLYIAKVE [CNTN4_Y180] | 0.405 | 0.757 | 0.635 | 0.441 | 0.62 | 0.522 | 0.479 | 0.896 | 0.89 | 0.448 | 0.52 | 0.391 | 0.336
0.816 | 0.721 | 0.43 | SSQAHYRLSAF [ADAMTS9_Y100] | 0.399 | 0.482 | 0.481 | 0.347 | 0.584 | 0.452 | 0.434 | 0.65 | 0.584 | 0.449 | 0.426 | 0.41 | 0.368
0.849 | 0.571 | 0.479 | FKGKKYKPLDL [RPL35_Y78_YF] | 0.376 | 0.486 | 0.544 | 0.481 | 0.413 | 0.421 | 0.48 | 0.577 | 0.571 | 0.467 | 0.361 | 0.533 | 0.337
1.15 | 1.15 | 0.698 | LVMFIDAIFGM [SCN1A_Y1684_Y1684D] | 1.07 | 1.79 | 1.74 | 1.63 | 2.33 | 2 | 1.38 | 2.28 | 3.65 | 1.13 | 1.67 | 0.91 | 1.1
1.01 | 0.793 | 0.467 | IVLRSYPASDH [NID2_Y449_G453D] | 0.496 | 0.743 | 0.583 | 0.44 | 0.546 | 0.543 | 0.44 | 0.966 | 0.823 | 0.478 | 0.495 | 0.416 | 0.465
0.929 | 0.699 | 0.58 | EILLSYPRTGY [TGM1_Y365_L366P] | 0.445 | 0.867 | 0.658 | 0.49 | 0.47 | 0.397 | 0.371 | 0.626 | 0.789 | 0.418 | 0.456 | 0.448 | 0.379
